Test results taken from patent US20230272055A1 (Incyte, published 2023).
Substitutions are numbered along the chain they refer to.

B1: anti-mutCALR antibody clone 15 (antibody, human IgG1, lambda)
heavy: not shown
light: SYELTQPPSVSVAPGKTARITCGGDNIGSKSVHWYQQKPGQAPVLVVYDDSDRPSGIPERFSGSNSGNTATLTINRVEAGDEADYYCQVWDSSNDLLIFGGGTKLTVLGQPKAAPSVTLFPPSSEELQANKATLVCLISDFYPGAVTVAWKADSSPVKAGVETTTPSKQSNNKYAASSYLSLTPEQWKSHRSYSCQVTHEGSTVEKTVAPTECS
notes: human IgG1
B2: anti-mutCALR antibody clone 17 (antibody, human IgG1, lambda)
heavy: not shown
light: SYVLTQPPSVSVAPGQTARITCGGSDIGDEIVHWYQQKPGQAPVLVVYDDSDRPSGIPERFSGSNSGNTATLTISRAQAGDEADYYCQVWDSSSDHLIFGGGTKLTVLGQPKAAPSVTLFPPSSEELQANKATLVCLISDFYPGAVTVAWKADSSPVKAGVETTTPSKQSNNKYAASSYLSLTPEQWKSHRSYSCQVTHEGSTVEKTVAPTECS
notes: human IgG1
B3: anti-mutCALR antibody clone 40 (antibody, human IgG1, lambda, V domains shown)
VH: EVQLVQSGAEVKKPGASVKVSCKVSGYTLTESSMHWVRQAPGKGLEWMGLVDPEDGETIYAQKFQGRVTMTEDTSTDTAYMELSSLRSEDTAVYYCAREEWSGDGDDAFDIWGQGTMVTVSS
VL: QSVLTQPPSVSAAPGQKVTISCSGSSSNIGSYSVSWYQQLPGTAPKLLIYDNNKRPSGIPDRFSGSNSGTSATLGITGLQTGDEADYYCGTWDSSLSAWVFGGGTKLTVLG
notes: human IgG1
B4: anti-mutCALR antibody clone 38 (antibody, human IgG1, kappa, V domains shown)
VH: EVQPVQSGAEVKKPGSSVKVSCKASGGTFSSYAISWVRQAPGQGLEWMGLVDPEDGETIYAEKFRGRVTITADTSTDTAYMELSSLRSEDTAVYYCATEESYGPWGQGTLVTVSS
VL: DIQLTQSPSSLSASVGDRVTITCQASQDISNYLNWYQQKPGKAPKLLIYDASNLETGVPSRFSGSGSGTEFTLTISSLQPEDFATYYCQQLNSYPLTFGGGTKLEIKR
notes: human IgG1
B5: anti-mutCALR antibody clone 39 (antibody, human IgG1, kappa, V domains shown)
VH: B4 VH with P4L, R65Q
VL: B4 VL with N34D
notes: human IgG1
B6: anti-mutCALR antibody clone 32 (antibody, human IgG1, lambda, V domains shown)
VH: QVQLVQSGAEVKKPGATVKISCKVSGYSFTDYFIHWVQQAPGKGLAWVGLVDPEDGETIYAEKFQGRVTITADTSTDTAYMELSSLRSEDTAVYYCATPGGILTDPDAFDIWGQGTMVTVSS
VL: QSALTQPASVSGSPGQSITISCTGTSSDVGGYNYVSWYQQHPGKAPKLMIYEVSNRPSGVSNRFSGSKSGNTASLTISGLQAEDEADYYCSSYTSSSTPYVFGTGTKVTVLG
notes: human IgG1
B7: anti-mutCALR antibody clone 34 (antibody, human IgG1, lambda, V domains shown)
VH: B6 VH
VL: QSALTQPASVSGSPGQSITISCTGTSSDVGGYNYVSWYQQHPGKAPKLMIYEVSNRPSGVSNRFSGSKSGNTASLTISGLQAEDEADYYCSSYTSSSTYVFGTGTKVTVLG
notes: human IgG1
B8: anti-mutCALR antibody clone 33 (antibody, human IgG1, lambda, V domains shown)
VH: B6 VH
VL: QSALTQPRSVSGSPGQSVTISCAGTGSDVGGYNHVSWYQHHPGKAPKLMIYDVNKRPSGVPDRFSGSKSGNTASLTISGLQAEDEADYYCSSYIPSSTRWVFGGGTKLTVLG
notes: human IgG1
B9: anti-mutCALR antibody clone 36 (antibody, human IgG1, lambda, V domains shown)
VH: B6 VH
VL: B8 VL with H34Y, I94T, P95S, R99F, W100Y, G104T, L108V
notes: human IgG1
B10: anti-mutCALR antibody clone 53 (antibody, human IgG1, lambda, V domains shown)
VH: QVQLVQSGAEVKKPGASVKVSCKVSGYTLTELSMHWVRQAPGKGLEWMGGFDPEDGETIYAQKFQGRVTMTEDTSTDTAYMELSSLRSEDTAVYYCATDIQGLAEFDYWGQGTLVTVSS
VL: QSALTQPRSVSGSPGQSVTISCTGTNTDVGAYIDVSWYQQHPGKAPKLIIYDVSKWPSGVPDRFSGSKSGNTASLTISGLQAEDEADYYCCSYAGNHSFSFGGGTKVTVLG
notes: human IgG1
B11: anti-mutCALR antibody clone 52 (antibody, human IgG1, kappa, V domains shown)
VH: EVQLVQSGAEVKKPGASVKVSCKVSGYTLTELSMHWVRQAPGKGLEWMGLVDPEDGETIYAEKFQGRVTITADTSTDTAYMELSSPRSEDTAVYYCATTIGDDYFDYWGQGTLVTVSS
VL: not shown
notes: human IgG1
B12: anti-mutCALR antibody clone 6 (antibody, human IgG1, lambda)
heavy: not shown
light: QSALTQPASVSGSPGQSITISCTGTSSDVGGYNYVSWYQQHPGKAPKLMIYEVSNRPSGVSNRFSGSNSGNTATLTINRVEAGDEADYYCQVWDSSNDLLIFGGGTKLTVLGQPKAAPSVTLFPPSSEELQANKATLVCLISDFYPGAVTVAWKADSSPVKAGVETTTPSKQSNNKYAASSYLSLTPEQWKSHRSYSCQVTHEGSTVEKTVAPTECS
notes: human IgG1
B13: anti-mutCALR antibody clone 11 (antibody, human IgG1, lambda, V domains shown)
VH: EVRLVQSGAEVKKPGASVKVSCKVSGYTLTELSMQWVRQAPGKGLEWMGGFDPDDGETMYAEKFQGRLTVTEDTSTDTVYMELRSLTSEDTALYFCATSPGYDFFDYWGQGTLVTVSS
VL: QSALTQPRSVSGSPGQSVTISCTGTSSDVGGYNYVSWYQQHPGKAPKLMIYDVSKRPSGVPDRFSGSNSGNTATLTINRVEAGDEADYYCQVWDSSNDLLIFGGGTKLTVLG
notes: human IgG1
B14: anti-mutCALR antibody clone 44 (antibody, human IgG1, lambda, V domains shown)
VH: EVQLVQSGAEVKKPGSSVKVSCKASGGTFSSYAISWVRQAPGQGLEWMGGIIPIFGTANYAQKFQGRVTITADESTSTAYMELSSLRSEDTAVYYCASSPLRGSGWYWHYYYGMDVWGQGTTVTVSS
VL: SYVLTQPPSVSAAPGKTARISCGGNNIRSKSVHWYQQKAGQAPVLVIYQDSKRPSGIPERFSGSNSGNTATLTISGTQAMDEADYYCQAWDSNTVVFGGGTKLTVLG
B15: anti-mutCALR antibody clone 47 (antibody, human IgG1, lambda, V domains shown)
VH: B14 VH
VL: SYELTQPPSVSVAPGKTARITCGGNKIGTKSVHWYQQKPGQAPVLVIYRDSNRPSGIPERFSGSNSGNTATLTISRAQAGDEADYYCQVWDSSTVVFGGGTKLTVLG
B16: anti-mutCALR antibody clone 46 (antibody, human IgG1, lambda, V domains shown)
VH: B14 VH with E1Q
VL: B14 VL with V3E, A12V, S21T, A39P, I47V, A89V, N93S, V95A
B17: anti-mutCALR antibody clone 51 (antibody, human IgG1, lambda, V domains shown)
VH: B14 VH
VL: B15 VL with R49Q, N52K, R76G, A77T, G80M, V89A, D91G
notes: human IgG1

How the values were obtained:
[1] = molecular target: T1, Recombinant MBP-mutCALR Type 1 fusion protein (human); experiment: SPR, IgG captured, 1:1 fit, Exp. 1
T1 construct: custom made at Cepter; also called recombinant mutCALR protein
Procedure: Experiment 1: Recombinant MBP-mutCALR Type 1 fusion protein was custom made at Cepter (cepterbiopartners.com). Data for the interaction of antibodies with recombinant MBP-mutCALR Type 1 fusion protein were collected at 25° C. on a Biacore 8K instrument (Cytiva, Marlborough, Mass.), and all reagents were obtained from Cytiva unless otherwise specified. The experiments were conducted using Tris-buffered saline (pH 7.2), 0.005% Surfactant P20, 1 mM CaCl₂) as running buffer. To prepare the capture surfaces, anti-human IgG (Fc) antibodies (Product #29234600) was amine-coupled onto a CM4 chip (Product #BR100534) under standard conditions using an Amine Coupling Kit (Product #BR100050). […] The kinetics parameters were obtained by applying 1:1 binding model to fit the data from multiple-cycle injection experiments using Biacore Insight Evaluation software.

[2] = molecular target: T1, Recombinant MBP-mutCALR Type 1 fusion …; experiment: SPR, IgG captured, 1:1 fit, Exp. 2
How it was run: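 Antibodies captured via amine-coupled anti-human IgG (Fc) on a CM4 chip; recombinant MBP-mutCALR Type 1 fusion protein as analyte. Run at 25 °C in Tris-buffered saline pH 7.2, 0.005% P20, 1 mM CaCl₂. Multiple-cycle kinetics fitted to a 1:1 binding model.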

[3] = molecular target: T2, human Type 1 mutCALR on Ba/F3 cells expressing MPL and Type 1 mutCALR (human); experiment: cell-based or functional assay
T2 chain: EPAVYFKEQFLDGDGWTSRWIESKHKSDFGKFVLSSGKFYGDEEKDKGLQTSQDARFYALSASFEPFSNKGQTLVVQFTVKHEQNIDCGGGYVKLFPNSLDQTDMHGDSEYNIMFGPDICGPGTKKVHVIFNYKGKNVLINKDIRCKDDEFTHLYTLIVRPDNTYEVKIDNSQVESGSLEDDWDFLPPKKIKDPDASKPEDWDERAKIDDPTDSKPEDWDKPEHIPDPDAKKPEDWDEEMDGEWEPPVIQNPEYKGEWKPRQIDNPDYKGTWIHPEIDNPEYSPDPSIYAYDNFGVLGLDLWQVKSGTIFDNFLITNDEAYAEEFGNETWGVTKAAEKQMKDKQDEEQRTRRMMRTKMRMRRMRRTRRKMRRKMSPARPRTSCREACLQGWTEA

Binder | Kd [1] | koff [1] | kon [1] | Kd [2] | koff [2] | kon [2] | IC50, inhibition of pSTAT5 [3]
B1 | 6.03 nM | 0.215 s⁻¹ | 3.57e+07 M⁻¹ s⁻¹ | 1.02 nM | 0.00249 s⁻¹ | 2.44e+06 M⁻¹ s⁻¹ | –
B2 | 2.22 nM | 0.00347 s⁻¹ | 1.56e+06 M⁻¹ s⁻¹ | 0.249 nM | 0.00127 s⁻¹ | 5.12e+06 M⁻¹ s⁻¹ | –
B3 | 1.04 nM | 0.00538 s⁻¹ | 5.17e+06 M⁻¹ s⁻¹ | 0.352 nM | 0.00121 s⁻¹ | 3.44e+06 M⁻¹ s⁻¹ | –
B4 | 2.1 nM | 0.00268 s⁻¹ | 1.28e+06 M⁻¹ s⁻¹ | – | – | – | –
B5 | 5.59 nM | 0.0018 s⁻¹ | 322000 M⁻¹ s⁻¹ | – | – | – | –
B6 | 5.63 nM | 0.00768 s⁻¹ | 1.36e+06 M⁻¹ s⁻¹ | 1.71 nM | 0.00314 s⁻¹ | 1.84e+06 M⁻¹ s⁻¹ | –
B7 | 2.56 nM | 0.00581 s⁻¹ | 2.27e+06 M⁻¹ s⁻¹ | – | – | – | –
B8 | 16.2 nM | 0.0126 s⁻¹ | 775000 M⁻¹ s⁻¹ | – | – | – | –
B9 | 2.95 nM | 0.00205 s⁻¹ | 695000 M⁻¹ s⁻¹ | 1.22 nM | 0.00166 s⁻¹ | 1.36e+06 M⁻¹ s⁻¹ | –
B10 | 10.2 nM | 0.00235 s⁻¹ | 229000 M⁻¹ s⁻¹ | 17 nM | 0.108 s⁻¹ | 6.36e+06 M⁻¹ s⁻¹ | –
B11 | 1.76 nM | – | – | – | – | – | –
B12 | 2.57 nM | 0.00153 s⁻¹ | 597000 M⁻¹ s⁻¹ | 0.538 nM | 0.00123 s⁻¹ | 2.29e+06 M⁻¹ s⁻¹ | –
B13 | 10.2 nM | 0.00524 s⁻¹ | 514000 M⁻¹ s⁻¹ | – | – | – | –
B14 | – | – | – | – | – | – | 7 µg/mL
B15 | – | – | – | – | – | – | 10 µg/mL
B16 | – | – | – | – | – | – | 3.9 µg/mL
B17 | 4.64 nM | 0.00109 s⁻¹ | 235000 M⁻¹ s⁻¹ | 0.823 nM | 0.000524 s⁻¹ | 636000 M⁻¹ s⁻¹ | –
